Test results published in the Human Domainome abundance scans (Beltran et al. 2025).

B1: Myocardin-related transcription factor A, residues 341 to 383; numbered along this chain, Q969V6 (parent)
chain: GALPANLDDMKVAELKQELKLRSLPVSGTKTELIERLRAYQDQ

Variants of: B1
Assay: abundance fitness (aPCA) (normalised: wild type 0, dead -1); higher = more abundant; growth selection in yeast, the domain comes from the species named
Conditions: Homo sapiens

Abundance fitness, by site and new letter:
D9: P -0.416 | K 0.404 | T 0.243 | A 0.203 | G 0.13 | C 0.014 | S 0.159 | M 0.019 | E 0.273 | V 0.153 | N 0 | L -0.026 | R 0.135 | W -0.139 | Q 0.085
Q17: T -0.134 | G -0.153 | M 0.079 | V -0.207 | L -0.306 | P -0.794 | D -0.247 | Y -0.263 | E 0.048 | R -0.049 | S -0.036 | W -0.595 | A 0.015 | K -0.283 | F -0.234 | C -0.593
D8: W 0.185
K11: H -0.154 | V -0.055 | G -0.054 | M -0.275 | L -0.197 | E 0.047 | W -0.635 | Q -0.161 | S -0.029 | C -0.126 | F -0.502 | D -0.045 | A 0.132 | Y -0.799 | R -0.079 | T -0.161 | P -0.166
K20: R 0.011 | D -0.061 | F -0.153 | C 0.309 | A -0.003 | N -0.137 | L 0.002 | P -0.453 | E 0.145 | M 0.044 | H -0.342
M10: C -0.441 | I -0.302 | L -0.222 | W -0.41 | S -0.256 | A -0.104 | N -0.425 | G -0.839 | K -0.151 | Y -0.068 | P -0.531 | R -0.537 | V -0.872 | T -0.568 | E -0.979 | Q -0.434 | D -0.894
E18: P -1.33 | C -0.2 | A -0.007 | S -0.28 | Q -0.292 | V -0.15 | G -0.701 | W -0.606 | T -0.5 | I -0.906 | R -0.593 | K -0.365 | L -0.35 | M -0.274 | H -0.432
L15: A -0.336 | F -0.466 | K -0.508 | G -0.558 | N -0.628 | V -0.092 | R -0.831 | H -0.621 | T -0.403 | E -0.604 | W -1.38 | M -0.481 | I 0.119 | C -0.999 | Q -0.662 | D -0.369
E14: K -0.215 | C -0.311 | S -0.056 | H 0.136 | Y -0.147 | F -0.3 | Q -0.063 | M 0.022 | G -0.165 | D -0.266 | W -0.314 | R -0.169 | V -0.127 | A -0.079 | T -0.134 | L -0.355 | P -0.656
L19: C -0.083 | R -0.812 | K -0.8 | H -0.852 | V -0.286 | Q -0.408 | D -0.621 | W -0.911 | S -0.237 | T -0.391 | M 0.178 | G -0.536 | E -0.55 | A -0.048
K16: V -0.143 | R -0.159 | M 0.169 | Y -0.131 | P -0.587 | T -0.036 | N -0.384 | L -0.408 | D -0.714 | E -0.052 | H 0.123 | Q 0.186 | S 0.006
V12: A -0.029 | M 0.199 | Y -0.585 | R -0.177 | N -0.647 | L 0.164 | C -0.212 | Q -0.552 | I -0.177 | G -0.218 | F -0.037 | S -0.336 | D -0.363 | E 0.098 | W -0.374
